Consider seven molecules from patent US20110263824A1.

In assay [1] the target is human serum protein. The assay is described as follows: summary of Example 1-9: adsorption to human serum protein-immobilized magnetic beads.
Assay [2] concerns the target human serum protein. The assay is described as follows: adsorption of TM2 variant to human serum protein-immobilized magnetic beads, western blot quantification. Background: Immunoblotting shows a protein as a band on a membrane.
Assay [3] deals with human serum protein. Briefly: adsorption to human serum protein-immobilized magnetic beads, western blot quantification.
Assay [4] deals with human serum protein. The assay is described as follows: human serum (1:800) adsorbed to TM2 variant-immobilized magnetic beads, HRP-labeled anti-human IgG detection.
Assay [5] addresses human serum protein. Briefly: adsorption of TM2 to human serum protein-immobilized magnetic beads, western blot quantification (reference).
The target in assay [6] is human serum protein. The assay is described as follows: human serum (1:800) adsorbed to TM2-immobilized magnetic beads, HRP-labeled anti-human IgG detection.

B1: TM2 K26A (protein)
chain: MSDVQSSLTGTWYNELNSKMELTANADGTLTGKYLSKVGDVYVPYPLSGRYNLQPPAGQGVALGWAVSWENSKIHSATTWSGQFFSESSPVILTQWLLSSSTARGDVWESTLVGNDSFTKTAPTEQQIAHAQLHCRAPRLK
B1 gave a non-specific binding and adsorption relative to wild type TM2 (% of wild type TM2) with human serum protein [1] of 60. The Non-specific binding of serum protein (%) (% of wild type TM2) with human serum protein [2] was found to be 68. Also, the decrease of adsorption to human serum protein compared to the wild type TM2 with human serum protein [3] was 30%.

B2: TM2 R104E (protein)
chain: MSDVQSSLTGTWYNELNSKMELTANKDGTLTGKYLSKVGDVYVPYPLSGRYNLQPPAGQGVALGWAVSWENSKIHSATTWSGQFFSESSPVILTQWLLSSSTAEGDVWESTLVGNDSFTKTAPTEQQIAHAQLHCRAPRLK
With B2, the Non-specific binding of serum protein (%) (% of wild type TM2) with human serum protein [2] stood at 90. Also, the decrease of adsorption to human serum protein compared to the wild type TM2 with human serum protein [3] amounted to 10%.

B3: TM2 R104EK141E (protein)
chain: MSDVQSSLTGTWYNELNSKMELTANKDGTLTGKYLSKVGDVYVPYPLSGRYNLQPPAGQGVALGWAVSWENSKIHSATTWSGQFFSESSPVILTQWLLSSSTAEGDVWESTLVGNDSFTKTAPTEQQIAHAQLHCRAPRLE
In the assay with human serum protein [1], B3 returned a non-specific binding and adsorption relative to wild type TM2 (% of wild type TM2) of 20. The same molecule returned a Non-specific binding of serum protein (%) (% of wild type TM2) with human serum protein [2] of 25. For the same molecule, the decrease of adsorption to human serum protein compared to the wild type TM2 with human serum protein [3] turned out to be 70%.

B4: TM2 K141E (protein)
chain: MSDVQSSLTGTWYNELNSKMELTANKDGTLTGKYLSKVGDVYVPYPLSGRYNLQPPAGQGVALGWAVSWENSKIHSATTWSGQFFSESSPVILTQWLLSSSTARGDVWESTLVGNDSFTKTAPTEQQIAHAQLHCRAPRLE
In turn, B4 had a non-specific binding and adsorption relative to wild type TM2 (% of wild type TM2) in the assay with human serum protein [1] of 60. The molecule further registered a Non-specific binding of serum protein (%) (% of wild type TM2) in the assay with human serum protein [2] of 58. Further, in the assay with human serum protein [3], the decrease of adsorption to human serum protein compared to the wild type TM2 amounted to 40%.

B5: TM2 K73Q (protein)
chain: MSDVQSSLTGTWYNELNSKMELTANKDGTLTGKYLSKVGDVYVPYPLSGRYNLQPPAGQGVALGWAVSWENSQIHSATTWSGQFFSESSPVILTQWLLSSSTARGDVWESTLVGNDSFTKTAPTEQQIAHAQLHCRAPRLK
In the case of B5, the non-specific binding and adsorption relative to wild type TM2 (% of wild type TM2) in the assay with human serum protein [1] was found to be 60. In the assay with human serum protein [2], this molecule showed a Non-specific binding of serum protein (%) (% of wild type TM2) of 55. The decrease of adsorption to human serum protein compared to the wild type TM2 in the assay with human serum protein [3] worked out at 40%.

B6: TM2 D40NR104EK141E (protein)
chain: MSDVQSSLTGTWYNELNSKMELTANKDGTLTGKYLSKVGNVYVPYPLSGRYNLQPPAGQGVALGWAVSWENSKIHSATTWSGQFFSESSPVILTQWLLSSSTAEGDVWESTLVGNDSFTKTAPTEQQIAHAQLHCRAPRLE
In the case of B6, the Non-specific binding to serum protein (A450) in the assay with human serum protein [4] turned out to be 0.45 A450.

B7: tamavidin 2 (wild type) (protein)
chain: MSDVQSSLTGTWYNELNSKMELTANKDGTLTGKYLSKVGDVYVPYPLSGRYNLQPPAGQGVALGWAVSWENSKIHSATTWSGQFFSESSPVILTQWLLSSSTARGDVWESTLVGNDSFTKTAPTEQQIAHAQLHCRAPRLK
As for B7, in the assay with human serum protein [5], the Non-specific binding of serum protein (%) (% of wild type TM2) stood at 100. The molecule further yielded a Non-specific binding to serum protein (A450) in the assay with human serum protein [6] of 0.67 A450.
